The target of test [1] is T1, mono-ubiquitin (UniProt P0CG48 1-76). In words: ITC.
Test [2] has as its target T1, mono-ubiquitin. In words: ITC. The source holds these as a separate data set.

Like-named read-outs stand apart in the source and are kept apart here.

For ARGRWACQSCTFENEAAAVLCSICERPRLA (domain or fragment, human, UniProt Q96EP0 350-379, looked up) [HOIP NZF1 (aa350–379)], the binding result with mono-ubiquitin [1] is “binds”.

B1: SHARPIN (SHANK-associated RH domain-interacting protein) (natural protein, human, UniProt Q9H0F6 1-387, looked up)
chain: MAPPAGGAAAAASDLGSAAVLLAVHAAVRPLGAGPDAEAQLRRLQLSADPERPGRFRLELLGAGPGAVNLEWPLESVSYTIRGPTQHELQPPPGGPGTLSLHFLNPQEAQRWAVLVRGATVEGQNGSKSNSPPALGPEACPVSLPSPPEASTLKGPPPEADLPRSPGNLTEREELAGSLARAIAGGDEKGAAQVAAVLAQHRVALSVQLQEACFPPGPIRLQVTLEDAASAASAASSAHVALQVHPHCTVAALQEQVFSELGFPPAVQRWVIGRCLCVPERSLASYGVRQDGDPAFLYLLSAPREAPATGPSPQHPQKMDGELGRLFPPSLGLPPGPQPAASSLPSPLQPSWSCPSCTFINAPDRPGCEMCSTQRPCTWDPLAAAST
For the molecule B1, the binding result with mono-ubiquitin [2] is recorded as “binds”.

Consider AASSLPSPLQPSWSCPSCTFINAPDRPGCEMCSTQRPCTWDPLAAAST (domain or fragment, human, UniProt Q9H0F6 340-387, looked up) [SHARPIN NZF (340–387)], for which the binding result in the test with mono-ubiquitin [2] is given as “binds”.

The values are drawn from article PMC3085511 (Nature, 2011).
